The values below come from publication PMC12297659, “In situ structure of the mouse sperm central apparatus reveals mechanistic insights into asthenozoospermia” (Cell Research, 2025).

Common to all, as to experiment: cryo-EM structure; in situ cryo-electron tomography with subtomogram averaging of about 200 nm cryo-FIB lamellae of wild-type mouse sperm; local maps of 5.5 Å to 18 Å; AlphaFold2 models fitted into the density
For series [1], the target named is GMCL1 (BTBD16) (mouse (endogenous in sperm)) (UniProt Q920G9).
In series [2] the target is SPATA17 (mouse (endogenous in sperm)) (UniProt Q9D552).
SPATA17 (mouse (endogenous in sperm)), sequence (Q9D552 whole entry): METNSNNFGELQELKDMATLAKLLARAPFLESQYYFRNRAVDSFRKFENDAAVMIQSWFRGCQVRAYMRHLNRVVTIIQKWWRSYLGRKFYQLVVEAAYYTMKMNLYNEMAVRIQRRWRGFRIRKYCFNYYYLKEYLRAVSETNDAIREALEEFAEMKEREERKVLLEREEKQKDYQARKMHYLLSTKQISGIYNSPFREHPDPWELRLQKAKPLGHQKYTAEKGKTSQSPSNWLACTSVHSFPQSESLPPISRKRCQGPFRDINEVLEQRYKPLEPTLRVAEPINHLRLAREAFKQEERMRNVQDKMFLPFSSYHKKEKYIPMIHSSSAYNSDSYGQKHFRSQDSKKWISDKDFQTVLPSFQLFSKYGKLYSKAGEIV
Series [3] deals with the molecule itself.

In turn, “GMCL1 (BTBD16) (from UniProt Q920G9 1-524) (natural protein)” gave a stoichiometry N in series [1] of 2. “calmodulin (CaM) (from UniProt P0DP26 1-149) (natural protein)”: in series [2], the stoichiometry N was found to be 3.

B1: SPAG16 (natural protein, mouse (endogenous in sperm), UniProt Q8K450 1-639, looked up)
chain: MAAPSGVPPLRVLEELGIGLSPTGEVTEAVTSEGAYYLEQVTITETSEDECEYEEIPDDNFSIPEGEEDLEKAIHIIGEQARDIHILEQQTILPARNVMQEAIEDFLCNFLIKMGMTRTLDCFQAEWYELIQKKGSDFKGLGNVPDVYSQVMLLETENKNLKKELKHFKQAAEKAKEDLLRTQKERDFHRMHHKRIVQEKNKLIADLKGLKLHYASYEPTIRVLHEKHHALLKEKMLTSLERDRAVGKISGLQATLKNIDMGHIQVPVIKGSYESASITRESGDRAGHSCEKENSSEGPTQKSLREAREEVGYKSKLKNEKKDSEFPVDMQPDPNVTSCTENVSAAKFDYKLNNIFRLHELPVSCIVMHPCRDYLISCSEDRLWKMVGLPQGNVLLTGSGHTDWLSGCCFHPSGSKLATSSGDSTIKLWDLNKGECTLTLEGHNHAVWSCTWHSCGDFVASASLDMTSKIWDVNSERCRYTLYGHTDSVNSIEFFPFSNILLTASADKTLSVWDARTGKCEQSLYGHMHSVNDATFTPRGHIIASCDARGVTKLWDFRKLIPIVSIDVGPSSGNEVNFDQSGRVLAQASANGIIHLLDLKSGQIHKLVGHESEVHSVVFSHLGENLYSGGSDGTIRLWI
notes: SPAG16, mouse, with a coiled-coil domain and a C-terminal β-propeller domain; Adjacent copies dimerise through the coiled-coil domain; also called PF20 homolog; source: endogenous, in intact mouse sperm (cryo-FIB lamellae)
Turning to B1, the “stoichiometry N” value in series [3] was 2.

B2: CFAP70 (natural protein, mouse (endogenous in sperm), UniProt D3YVL2 1-1141, looked up)
chain: MDQTSSTTKIVHITVTNGYDLKGFKGDTPVTFVRAEFNQTVLGDSSKVTVSPEGTAKYNFTSNIDLSPDGGGALDDLAHKPLFLTVTEVLPKEKKQKDEKTLILGQAVVDLLPLLEGEESFETTVPLHPVPGSPLETPLPGSKQCSLDVKVFVAEPLLTPAQVSASNLLKVTLEAAYSVPESFIPVGPQQNYMVGLQVPSVGEKDYTMIFKNGNLKLGGEKEPVPRPKKWPIANILAPGASNIPDEFIVGGPYEEEEGELNHPEDREFRNQAECTKKRIVWDLESRCFLHPFAVASFQKRIADCRLWPVEITRVPLVVMPKAKPGKLEKIDDENQLSFHGVAYINMVPLLYPGVKKIRGAFHVYPYLDGTVFEKTKCLFSLFRDTGHHLVQNNKAGGLNSPLSKPLSKNLKEEKPGKDKDTEGRPRLGELQAPSIKSQSSDTPLESEAPLSHNLEGQQYIEAGTYIVLEIQLEKALVPKRMPEELARRVKEMIPPRPPLTRRTGGAQKAVSDYHTQIKSISRAILNEYYRMFGKQGPKLESDIDNETMEERKCQLNYELNCSGKYFAFKEQLKHAVVKIVREKYLKTTAFESQEELQTFISELYVFLVDQMHVALNQAVPDDVPSSTSTIQTSSEQLRLFAFEAEVNEKFEIAAMYYEERLVREPQNLENWLDYGAFCLLTEDNIKAQECFRKALSLNESHVDSLLLCGVLAILLENYEQAEIFFEDATCLEPTNVIAWTLLGLFYEIQNNDIRMEMAFHEAFKQLQARTLQTKLKSTVTIENMEEGVKVEPSFGPWGVVQESTTAIKTEGLSGMRPQSSHQLSPHTNMELHPQPQGPNTALSSLDEFLEESPKAQSESQEPMATGQPLEPSLVQRSSNALLKELTSKKDISKCQDSSAFSPPTQHVIAQPPVTIFMETIRFLMKVNAVQFVHRVLAHELLCPQGGPSCEYYLVLAQTHLLKKDFAKTEEYLQQAAQMDYLNPNVWGVKGHLYFLSGNHAEAKECYERTISFVVDASEMHFIFLRLGHIYLEEKEYENAKRTYMHACKRSPSCLTWLGLGIACYRLEELTEAEDALSEANALNNCNAEVWAYLALVCLKVGRQLEAEQAYKYTIKLKLKDQALLEEIHTVQEMVGFGNPSF
notes: CFAP70, mouse; The CFAP70 dimer was predicted with AlphaFold2 Multimer before fitting; source: endogenous, in intact mouse sperm (cryo-FIB lamellae)
On to B2, for which, in series [3], the “stoichiometry N” value was determined as 2.
